# In US20230363418A1, “COMPOSITION FOR PREVENTING OR TREATING NEUROPSYCHOLOGIC DISEASE, COMPRISING MANF” (CEFO CO., LTD., priority 2020, published 2023):
# Experiments:
# [1] = tested on: primary cultured neural progenitor cells; assay: Immunofluorescence staining of Ki67, Nestin, TuJ1 and NeuN in primary cultured neural progenitor cells; type: cell-based, rat; details: MANF 30 ng/ml, compared to the control group
# Description: To investigate whether or not MANF promotes proliferation of neural progenitor cells, the primary cultured neural progenitor cells are treated with MANF, and then proliferating cells were fluorescently stained with Ki67 antibody, neural progenitor cells with Nestin antibody, immature nerve cells with TuJ1, and mature neural cells with NeuN antibody.
# Specifically, the neural progenitor cells were cultured in the same manner as in Example 1, and after removing all the mediums, they were washed once with PBS. After being fixed for 15 minutes with 4% PFA (paraformaldehyde) in PBS, they were washed twice with PBS again. After washing the cover slip to which the cells were attached with PBST, 0.5% Triton X-100-PBST was added thereto and reacted for 10 minutes. Again, blocking was performed with 2% BSA in PBST or 5% normal serum (Normal donkey serum: Jackson lab, 017-000-121, Normal horse serum: Sigma, H0146); and as primary antibodies, rb-Ki67(Abcam, AB15580, 1:500), mo-NeuN(Millipore, MAB377B, 1:500), mo-Tuj1(Sigma, T8660, 1:3000), mo-Flag(Sigma, F1804, 1:500), and mo-Nestin(Millipore, MAB353, 1:200) were added to 2% BSA in PBS and reacted overnight at 4° C. The next day, they were washed with PBST, and then, as secondary antibodies, mo-Alexa 488(Invitrogen, A21202, 1:700), mo-Cy3(Jackson lab, 715-165-151, 1:500), and rb-Alexa 488(Jackson lab, 711-546-152, 1:700) were added to PBST and reacted at room temperature for 1 hour. Cell nuclei were stained with DAPI (1 µg/mL, Sigma), mounted on slides, scanned with a confocal laser microscope, and photographed. Heo SR et al.(2009) and Han AM t al.(2012) were referred to in the above method.
# In the case of cell count confirmation and data analysis, the number of cell nuclei labeled with DAPI and the number of cells stained with each differentiation marker were counted, respectively, and the number of each differentiation marker was expressed as a percentage of the number of cell nuclei. In this case, the number of cells that matched exactly in shape and location and had the shape of a nerve cell was counted. For example, in NeuN cell count measurement, the number of cells with a round shape in a nucleus and overlapping staining with DAPI was counted, and nonspecific signals appearing at the edge of the slide were not included. In data analysis, the control group and the experimental group were compared through one-way analysis of variance (ANOVA). The statistical significance of the data was set as p<0.05.
# [2] = tested on: primary neural progenitor cells; assay: GAD-GFP reporter plasmid assay of GABAergic nerve cell differentiation; type: cell-based, rat; details: MANF 30 ng/ml
# Text: In order to efficiently investigate the differentiation of the primary neural progenitor cells into GABAergic nerve cells by MANF, a plasmid (GAD-GFP) capable of easily and effectively observing and detecting the differentiation into the GABAergic nerve cells with the naked eye by recombining green fluorescent protein (GFP), a fluorescent protein, into the promoter region of the human GAD gene was used. When the activity of the promoter is increased, the differentiation into GABAergic nerve cells is promoted, and whether or not the activity of the promoter is increased can be monitored by the expression level of a reporter gene operably linked thereto. Accordingly, it can be seen that the differentiation into GABAergic nerve cells is promoted when the expression level of the reporter gene is increased. In addition, it is possible to easily observe the differentiation of GABAergic nerve cells using a transcription factor that binds to the promoter.
# Specifically, on day 3 after culturing the primary neural progenitor cells, the cells were separated from the dish with 0.05% trypsin and subcultured, and then all groups were transfected with GAD-GFP DNA. The cells were seeded in a 24-well plate and cultured in N2 medium containing 10 ng/mL bFGF for 24 hours. N2 medium for differentiation without bFGF was treated with MANF at a concentration of 30 ng/ml, and after 3 and 5 days, it was fixed and stained.
# [3] = tested on: IBO-administered memory impairment and autism model; assay: Morris water maze experiment; type: in vivo, rat; details: MANF-AAV-hMSC transplanted into the hippocampus of IBO rats
# Description: Memory impairment and autism models were prepared by administering IBO to the entorhinal cortex of the rats, wherein the IBO destroys granule cells of the dentate gyrus (DG) and pyramidal cells of the hippocampus, which receive nerve signals input from the entorhinal cortex. Specifically, the rats were anesthetized with equitensin (10% ethanol containing 350 mM pentobarbital sodium, 250 mM chloral hydrate, 85 mM MgSO and 40% propylene glycol). The incisor bar of a stereotaxic device (Stoelting Co., U.S.A.) was placed 3.4 mm below the interaural line, and the injection needle angle was fixed at […] right from the center of the sagittal plane. […]
# The same number of rats as in each group of Example 6-1 was subjected to the Morris water maze experiment in a round, rust-free and inner surface-white swimming pool (diameter 160 cm; height 60 cm). […] The final experiment measured the time the rat stayed where the platform was for 60 seconds after removing the platform (probe trial). Swimming time and training length were tracked and recorded using a video camera. […] The captured video pictures were analyzed with a video tracking system (Ethovision water maze program, Noldus Information Technology, Wogeningen, The Netherlands). The analyzed information included the time of swimming in the target quadrant, and the number of crossings the imaginary platform to find the removed platform.
molecule,measurement,setting,value
"MANF: one of 16 or more growth factors secreted into nerve stem cells by cerebrovascular cells; amino acid sequence of SEQ ID NO: 1 (protein, MANF) MRRMWATQGLAVALALSVLPGSRALRPGDCEVCISYLGRFYQDLKDRDVTFSPATIENELIKFCREARGKENRLCYYIGATDDAATKIINEVSKPLAHHIPVEKICEKLKKKDSQICELKYDKQIDLSTVDLKKLRVKELKKILDDWGETCKGCAEKSDYIRKINELMPKYAPKAASARTDL",Ki67-stained proliferating cells,[1],significantly increased
same,immature neural cells (TuJ1),[1],"also increased, but there was no statistical significance"
same,mature neural cells (NeuN),[1],"also increased, but there was no statistical significance"
same,nestin-stained neural progenitor cells,[1],significantly increased
same,number of NeuN-stained cells in MANF-treated group vs Con group,[2]; 3 and 5 days,no greater increase
same,"GFP-positive cells (GAD promoter-GFP, GABAergic differentiation)","[2]; 3 and 5 days, vs Con group",increased compared to the Con group
same,number of NeuN-stained cells,[2]; after 3 days of differentiation,10%
same,number of NeuN-stained cells,[2]; after 5 days of differentiation,50%
same,memory ability in Morris water maze test,[3],memory improvement
